Measurements published in US20160200782A1.

Legend:
Test in all cases: cell-based or functional assay
ARK5(h) (human) = ARK5(h) (human) (UniProt O60285)
Ab1(H396P)(h) (human) = Ab1(H396P)(h) (human) (UniProt P00519)
BrSK1(h) (human) = BrSK1(h) (human) (UniProt Q8TDC3)
CDK5/p25(h) (human) = CDK5/p25(h) (human) (UniProt Q00535)
[1] = molecular target: CDK7/cyclinH/MAT1(h) (human) (UniProt P50613)
CHK1(h) (human) = CHK1(h) (human) (UniProt O14757)
CHK2(I157T)(h) (human) = CHK2(I157T)(h) (human) (UniProt O96017)
CLK3(h) (human) = CLK3(h) (human) (UniProt P49761)
CaMKIδ(h) (human) = CaMKIδ(h) (human) (UniProt Q8IU85)
CaMKIδ(h) (human), sequence (Q8IU85 whole entry, stated change not applied): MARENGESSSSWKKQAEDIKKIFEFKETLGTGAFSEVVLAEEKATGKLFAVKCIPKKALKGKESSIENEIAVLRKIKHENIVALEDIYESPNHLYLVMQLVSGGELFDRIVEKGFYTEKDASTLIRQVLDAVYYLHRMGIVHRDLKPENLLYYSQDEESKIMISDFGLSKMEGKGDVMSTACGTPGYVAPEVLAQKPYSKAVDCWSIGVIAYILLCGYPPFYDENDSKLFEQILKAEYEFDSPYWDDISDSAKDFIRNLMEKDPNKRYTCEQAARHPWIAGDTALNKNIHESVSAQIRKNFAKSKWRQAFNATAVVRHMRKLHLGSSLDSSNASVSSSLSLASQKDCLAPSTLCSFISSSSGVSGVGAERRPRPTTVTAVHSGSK

[2] = molecular target: EGFR(T790M,L858R)(h) (human) (UniProt P00533)
EphA7(h) (human) = EphA7(h) (human) (UniProt Q15375)
EphA8(h) (human) = EphA8(h) (human) (UniProt P29322)
EphB3(h) (human) = EphB3(h) (human) (UniProt P54753)
EphB3(h) (human), sequence (P54753 581-998 limits assumed): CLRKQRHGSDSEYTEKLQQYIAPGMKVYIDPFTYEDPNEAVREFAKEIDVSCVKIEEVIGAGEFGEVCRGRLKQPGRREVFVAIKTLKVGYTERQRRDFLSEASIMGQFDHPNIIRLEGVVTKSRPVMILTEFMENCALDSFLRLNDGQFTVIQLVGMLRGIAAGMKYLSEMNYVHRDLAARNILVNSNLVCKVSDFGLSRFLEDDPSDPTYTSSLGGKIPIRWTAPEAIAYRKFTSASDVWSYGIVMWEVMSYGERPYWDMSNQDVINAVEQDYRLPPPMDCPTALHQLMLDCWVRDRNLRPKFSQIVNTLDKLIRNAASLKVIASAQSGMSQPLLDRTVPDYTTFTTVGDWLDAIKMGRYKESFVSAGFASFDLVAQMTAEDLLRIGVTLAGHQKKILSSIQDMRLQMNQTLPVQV

EphB4(h) (human) = EphB4(h) (human) (UniProt P54760)
ErbB4(h) (human) = ErbB4(h) (human) (UniProt Q15303)
ErbB4(h) (human), sequence (Q15303 676-1308 limits assumed): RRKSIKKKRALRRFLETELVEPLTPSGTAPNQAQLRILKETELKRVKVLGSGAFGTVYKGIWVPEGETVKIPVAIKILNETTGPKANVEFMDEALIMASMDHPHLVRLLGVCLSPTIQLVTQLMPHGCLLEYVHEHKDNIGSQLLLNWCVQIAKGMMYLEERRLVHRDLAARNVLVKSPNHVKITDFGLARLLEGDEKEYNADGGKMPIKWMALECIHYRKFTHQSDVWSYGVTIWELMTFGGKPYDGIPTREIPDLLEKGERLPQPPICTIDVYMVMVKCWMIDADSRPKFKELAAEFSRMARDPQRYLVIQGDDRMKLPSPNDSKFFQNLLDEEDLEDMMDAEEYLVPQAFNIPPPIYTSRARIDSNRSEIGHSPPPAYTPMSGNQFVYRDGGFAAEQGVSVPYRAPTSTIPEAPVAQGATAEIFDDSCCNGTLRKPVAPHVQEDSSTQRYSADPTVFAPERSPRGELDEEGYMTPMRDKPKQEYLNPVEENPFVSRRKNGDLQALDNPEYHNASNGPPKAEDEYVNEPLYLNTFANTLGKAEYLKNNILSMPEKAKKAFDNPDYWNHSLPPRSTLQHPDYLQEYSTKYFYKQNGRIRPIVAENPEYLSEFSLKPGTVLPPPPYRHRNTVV

FGFR2(h) (human) = FGFR2(h) (human) (UniProt P21802)
FGFR2(h) (human), sequence (P21802 456-770 limits assumed): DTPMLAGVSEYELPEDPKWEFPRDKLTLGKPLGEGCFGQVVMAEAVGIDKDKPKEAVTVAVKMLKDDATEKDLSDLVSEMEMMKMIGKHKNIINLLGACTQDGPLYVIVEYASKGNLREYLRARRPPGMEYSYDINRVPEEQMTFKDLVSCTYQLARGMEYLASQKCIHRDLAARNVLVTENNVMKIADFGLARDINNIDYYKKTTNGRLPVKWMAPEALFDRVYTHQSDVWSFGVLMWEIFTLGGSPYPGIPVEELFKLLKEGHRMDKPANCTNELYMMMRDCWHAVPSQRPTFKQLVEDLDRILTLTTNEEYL

Fyn(h) (human) = Fyn(h) (human) (UniProt P06241)
GCK(h) (human) = GCK(h) (human) (UniProt Q12851)
GRK6(h) (human) = GRK6(h) (human) (UniProt P43250)
HIPK3(h) (human) = HIPK3(h) (human) (UniProt Q9H422)
IKKβ(h) (human) = IKKβ(h) (human) (UniProt O14920)
IR(h), activated (human) = IR(h), activated (human) (UniProt P06213)
IRAK1(h) (human) = IRAK1(h) (human) (UniProt P51617)
JNK3(h) (human) = JNK3(h) (human) (UniProt P53779)
LOK(h) (human) = LOK(h) (human) (UniProt O94804)
Lck(h) (human) = Lck(h) (human) (UniProt P06239)
MAPKAP-K2(h) (human) = MAPKAP-K2(h) (human) (UniProt P49137)
MAPKAP-K2(h) (human), sequence (P49137 46-400 limits assumed): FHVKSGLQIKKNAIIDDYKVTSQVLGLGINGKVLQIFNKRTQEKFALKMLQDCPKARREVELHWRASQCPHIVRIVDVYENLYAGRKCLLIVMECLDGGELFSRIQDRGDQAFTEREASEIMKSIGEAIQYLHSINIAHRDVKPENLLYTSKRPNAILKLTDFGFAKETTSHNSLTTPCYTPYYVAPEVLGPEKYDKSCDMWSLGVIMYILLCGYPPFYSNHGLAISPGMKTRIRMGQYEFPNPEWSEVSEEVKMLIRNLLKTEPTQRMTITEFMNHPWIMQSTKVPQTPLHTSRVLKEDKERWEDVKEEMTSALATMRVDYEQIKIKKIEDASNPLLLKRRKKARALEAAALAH

MELK(h) (human) = MELK(h) (human) (UniProt Q14680)
MST3(h) (human) = MST3(h) (human) (UniProt Q9Y6E0)
Met(Y1248C)(h) (human) = Met(Y1248C)(h) (human) (UniProt P08581)
Met(Y1248D)(h) (human) = Met(Y1248D)(h) (human) (UniProt P08581)
Met(h) (human) = Met(h) (human) (UniProt P08581)
NEK7(h) (human) = NEK7(h) (human) (UniProt Q8TDX7)
PAR-1Bα(h) (human) = PAR-1Bα(h) (human) (UniProt Q7KZI7)
PASK(h) (human) = PASK(h) (human) (UniProt Q96RG2)
PDGFRα(D842V)(h) (human) = PDGFRα(D842V)(h) (human) (UniProt P16234)
PKBβ(h) (human) = PKBβ(h) (human) (UniProt P31751)
PKCδ(h) (human) = PKCδ(h) (human) (UniProt Q05655)
PKCη(h) (human) = PKCη(h) (human) (UniProt P24723)
PKG1α(h) (human) = PKG1α(h) (human) (UniProt Q13976)
PKG1β(h) (human) = PKG1β(h) (human) (UniProt Q13976)
PKG1β(h) (human), sequence (Q13976 other isoform, or with tags, fused parts or gaps limits assumed): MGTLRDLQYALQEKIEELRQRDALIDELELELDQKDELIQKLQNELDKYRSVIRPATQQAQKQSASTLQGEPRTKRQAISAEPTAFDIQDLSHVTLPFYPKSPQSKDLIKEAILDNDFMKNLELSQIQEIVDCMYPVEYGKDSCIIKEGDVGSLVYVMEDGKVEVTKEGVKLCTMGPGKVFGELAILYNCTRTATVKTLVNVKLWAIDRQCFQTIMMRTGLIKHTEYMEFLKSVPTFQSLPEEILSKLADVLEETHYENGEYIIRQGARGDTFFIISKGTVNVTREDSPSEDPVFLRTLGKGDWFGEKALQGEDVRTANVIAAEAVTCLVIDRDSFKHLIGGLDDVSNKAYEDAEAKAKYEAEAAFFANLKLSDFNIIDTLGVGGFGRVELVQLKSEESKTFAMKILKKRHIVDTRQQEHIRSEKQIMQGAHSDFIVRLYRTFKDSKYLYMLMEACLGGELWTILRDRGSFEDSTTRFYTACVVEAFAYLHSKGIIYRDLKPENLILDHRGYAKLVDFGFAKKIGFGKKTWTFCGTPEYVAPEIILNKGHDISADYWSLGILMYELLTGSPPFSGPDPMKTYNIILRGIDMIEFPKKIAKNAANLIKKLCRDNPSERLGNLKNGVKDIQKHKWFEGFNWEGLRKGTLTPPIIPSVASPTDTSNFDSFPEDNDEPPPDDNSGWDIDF

Pim-1(h) (human) = Pim-1(h) (human) (UniProt P11309)
Pyk2(h) (human) = Pyk2(h) (human) (UniProt Q14289)
Ret(V804M)(h) (human) = Ret(V804M)(h) (human) (UniProt P07949)
Ros(h) (human) = Ros(h) (human) (UniProt P08922)
SIK(h) (human) = SIK(h) (human) (UniProt P57059)
TAO2(h) (human) = TAO2(h) (human) (UniProt Q9UL54)
TBK1(h) (human) = TBK1(h) (human) (UniProt Q9UHD2)
TBK1(h) (human), sequence (Q9UHD2 whole entry): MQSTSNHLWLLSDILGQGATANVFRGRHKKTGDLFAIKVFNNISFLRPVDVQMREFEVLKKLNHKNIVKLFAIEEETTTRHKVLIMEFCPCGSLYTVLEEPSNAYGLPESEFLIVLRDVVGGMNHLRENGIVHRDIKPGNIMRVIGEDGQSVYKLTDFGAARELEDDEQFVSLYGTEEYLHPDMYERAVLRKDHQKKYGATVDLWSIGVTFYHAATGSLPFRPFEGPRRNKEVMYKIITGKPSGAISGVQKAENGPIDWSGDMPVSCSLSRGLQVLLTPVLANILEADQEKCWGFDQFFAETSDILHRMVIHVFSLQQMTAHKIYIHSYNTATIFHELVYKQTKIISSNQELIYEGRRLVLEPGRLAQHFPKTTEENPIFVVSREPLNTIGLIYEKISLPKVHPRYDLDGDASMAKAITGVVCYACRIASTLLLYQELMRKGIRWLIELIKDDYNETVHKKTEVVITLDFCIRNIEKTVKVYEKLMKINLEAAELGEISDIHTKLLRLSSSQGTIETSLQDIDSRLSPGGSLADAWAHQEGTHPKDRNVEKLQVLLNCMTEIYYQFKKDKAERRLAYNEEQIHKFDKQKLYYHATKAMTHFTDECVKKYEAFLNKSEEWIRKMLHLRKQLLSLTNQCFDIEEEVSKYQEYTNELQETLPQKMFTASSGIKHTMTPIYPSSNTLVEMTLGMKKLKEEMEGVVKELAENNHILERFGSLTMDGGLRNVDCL

Tec(h)activated (human) = Tec(h)activated (human) (UniProt P42680)
Txk(h) (human) = Txk(h) (human) (UniProt P42681)
ULK2(h) (human) = ULK2(h) (human) (UniProt Q8IYT8)
ULK3(h) (human) = ULK3(h) (human) (UniProt Q6PHR2)
WNK2(h) (human) = WNK2(h) (human) (UniProt Q9Y3S1)
ZIPK(h) (human) = ZIPK(h) (human) (UniProt O43293)
ZIPK(h) (human), sequence (O43293 whole entry): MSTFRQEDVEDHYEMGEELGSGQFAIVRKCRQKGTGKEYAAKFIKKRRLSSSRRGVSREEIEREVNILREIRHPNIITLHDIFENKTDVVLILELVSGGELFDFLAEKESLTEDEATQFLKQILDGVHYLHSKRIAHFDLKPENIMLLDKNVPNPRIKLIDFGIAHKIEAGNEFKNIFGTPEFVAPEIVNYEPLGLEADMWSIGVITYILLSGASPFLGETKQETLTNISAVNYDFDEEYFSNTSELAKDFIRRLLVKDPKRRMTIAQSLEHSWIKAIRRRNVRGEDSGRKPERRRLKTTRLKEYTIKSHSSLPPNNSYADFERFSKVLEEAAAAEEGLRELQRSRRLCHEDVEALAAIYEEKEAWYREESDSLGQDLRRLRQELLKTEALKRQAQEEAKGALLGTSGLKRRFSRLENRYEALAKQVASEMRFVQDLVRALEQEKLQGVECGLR

cKit(h) (human) = cKit(h) (human) (UniProt P10721)
mTOR/FKBP12(h) (human) = mTOR/FKBP12(h) (human) (UniProt P42345)

CDK7/cyclinH/MAT1(h) (human), sequence (P50613 whole entry, chain 1 of 3): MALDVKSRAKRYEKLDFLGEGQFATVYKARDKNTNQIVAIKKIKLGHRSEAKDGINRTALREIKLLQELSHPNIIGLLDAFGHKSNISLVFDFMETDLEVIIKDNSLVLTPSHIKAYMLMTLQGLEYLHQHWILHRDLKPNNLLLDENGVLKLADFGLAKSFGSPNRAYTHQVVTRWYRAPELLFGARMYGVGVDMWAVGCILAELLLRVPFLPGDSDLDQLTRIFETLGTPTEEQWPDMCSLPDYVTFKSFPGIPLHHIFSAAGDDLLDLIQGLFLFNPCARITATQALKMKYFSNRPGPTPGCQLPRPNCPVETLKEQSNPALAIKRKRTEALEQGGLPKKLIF
CDK7/cyclinH/MAT1(h) (human), sequence (P51946 whole entry, chain 2 of 3, further chain): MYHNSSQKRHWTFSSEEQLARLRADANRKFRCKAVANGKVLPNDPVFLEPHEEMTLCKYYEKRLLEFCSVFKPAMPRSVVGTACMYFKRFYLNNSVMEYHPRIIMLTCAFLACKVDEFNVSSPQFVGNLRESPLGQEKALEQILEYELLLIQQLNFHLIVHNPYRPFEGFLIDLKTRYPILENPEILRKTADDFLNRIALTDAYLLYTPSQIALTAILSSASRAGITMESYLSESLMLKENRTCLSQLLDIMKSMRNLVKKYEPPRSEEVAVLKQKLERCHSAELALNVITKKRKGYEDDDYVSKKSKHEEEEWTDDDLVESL
CDK7/cyclinH/MAT1(h) (human), sequence (P51948 whole entry, chain 3 of 3, further chain): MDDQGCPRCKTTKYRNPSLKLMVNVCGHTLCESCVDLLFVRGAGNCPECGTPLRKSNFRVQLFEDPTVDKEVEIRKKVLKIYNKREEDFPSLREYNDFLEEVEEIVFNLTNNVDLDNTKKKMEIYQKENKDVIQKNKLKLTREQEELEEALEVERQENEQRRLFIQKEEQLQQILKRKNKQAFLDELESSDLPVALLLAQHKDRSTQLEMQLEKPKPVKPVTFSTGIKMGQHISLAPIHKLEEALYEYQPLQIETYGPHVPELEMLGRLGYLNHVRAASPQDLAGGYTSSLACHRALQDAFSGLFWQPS

## MMI-0500 (peptide)
ARK5(h) (human)
  % activity: 20%
Ab1(H396P)(h) (human)
  % activity: 51%
BrSK1(h) (human)
  % activity: 72%
CDK5/p25(h) (human)
  % activity: 66%
[1]
  % activity: 15%
CHK1(h) (human)
  % activity: 65%
CHK2(I157T)(h) (human)
  % activity: 3%
CLK3(h) (human)
  % activity: 76%
CaMKIδ(h) (human)
  % activity: 0%
[2]
  % activity: 53%
EphA7(h) (human)
  % activity: 189%
EphA8(h) (human)
  % activity: 337%
EphB3(h) (human)
  % activity: 79%
EphB4(h) (human)
  % activity: 38%
ErbB4(h) (human)
  % activity: 2%
FGFR2(h) (human)
  % activity: 12%
Fyn(h) (human)
  % activity: 83%
GCK(h) (human)
  % activity: 30%
GRK6(h) (human)
  % activity: 174%
HIPK3(h) (human)
  % activity: 85%
IKKβ(h) (human)
  % activity: 71%
IR(h), activated (human)
  % activity: 90%
IRAK1(h) (human)
  % activity: 5%
JNK3(h) (human)
  % activity: 171%
LOK(h) (human)
  % activity: 7%
Lck(h) (human)
  % activity: 359%
MAPKAP-K2(h) (human)
  % activity: 9%
MELK(h) (human)
  % activity: 0%
MST3(h) (human)
  % activity: 4%
Met(Y1248C)(h) (human)
  % activity: 73%
Met(Y1248D)(h) (human)
  % activity: 218%
Met(h) (human)
  % activity: 27%
NEK7(h) (human)
  % activity: 89%
PAR-1Bα(h) (human)
  % activity: 97%
PASK(h) (human)
  % activity: 9%
PDGFRα(D842V)(h) (human)
  % activity: 170%
PKBβ(h) (human)
  % activity: 21%
PKCδ(h) (human)
  % activity: 61%
PKCη(h) (human)
  % activity: 45%
PKG1α(h) (human)
  % activity: 25%
PKG1β(h) (human)
  % activity: 24%
Pim-1(h) (human)
  % activity: 0%
Pyk2(h) (human)
  % activity: 46%
Ret(V804M)(h) (human)
  % activity: 36%
Ros(h) (human)
  % activity: 150%
SIK(h) (human)
  % activity: 40%
TAO2(h) (human)
  % activity: 15%
TBK1(h) (human)
  % activity: 16%
Tec(h)activated (human)
  % activity: 33%
Txk(h) (human)
  % activity: 10%
ULK2(h) (human)
  % activity: 124%
ULK3(h) (human)
  % activity: 177%
WNK2(h) (human)
  % activity: 8%
ZIPK(h) (human)
  % activity: 1%
cKit(h) (human)
  % activity: 45%
mTOR/FKBP12(h) (human)
  % activity: 140%
